For assay [1], the target named is T1, HLA-A2 molecules (Homo sapiens, UniProt P04439, D140Y/D185E/D98H/E176V/E277Q/G131W/G231S/I119V/I121R/I166T/I218V/L300P/L318F/N151K/N90K/P208A/P217A/Q86G/Q94H/R138H/R169H/T345S).
T1 construct: endogenous in cells; host or cells: T2 cells
Nature of the assay: T2 cell-binding assay: regulation of HLA-A2 expression on T2 cells by flow cytometry. The conditions noted are these: for T2 Binding: peptide 25 μg/mL, T2 cells, flow cytometry. From the text: FIG. 1B is a graph depicting the binding of the P703 and P215 peptides to HLA-A2 molecules at various peptide concentrations. Peptide concentration (μg/mL) is on the x-axis, and mean fluorescence intensity (MFI) is on the y-axis. The positive control peptide is MUC-1, and the negative control peptide is CAP-7.
The T2 binding values are expressed in mean fluorescence intensity. The values in parentheses are fold increases as compared with the negative control (CAP-7 peptide).
(In general: In flow cytometry, cells or beads pass a laser one at a time.)

Assay [2] deals with T1, HLA-A2 molecules. Nature of the assay: Stability of peptide-HLA-A2 complexes on T2 cells after brefeldin A. It counts as binding. The conditions noted are these: peptide 25 μg/mL overnight with T2 cells, various time points. The procedure:
FIG. 1A is a graph depicting the stability of HLA-A2/NGEP complexes for various peptides. The time post-treatment with brefeldin A (hours) is on the x-axis, and the percentage of remaining complexes is on the y-axis. Results are expressed in relative percentage of binding compared to 100% at time 0.
To determine the stability of peptide-MHC complexes, several of the identified peptides (at concentrations of 25 μg/mL) were incubated with T2 cells overnight. Unbound peptides were washed off, and delivery of new class 1 molecules to the cell surface was blocked by the addition of brefeldin A. Cells then were analyzed for the presence of peptide-HLA-A2 complexes at various time points, as indicated by the degree of mean fluorescence intensity. […] P703 peptide also was determined to bind T2 cells at higher levels at various peptide concentrations than the P215 peptide and the positive control (see FIG. 1B).

A further assay deals with CD8+ T cells in PBMC. As to the kind of experiment: Tetramer staining of PBMC from healthy donors and prostate cancer patients. Format: cell-based, human. As to conditions: Patients 2, 3 and 4 of four, pre-vaccination. The procedure:
To determine if prostate cancer patients recognized the NGEP-P703 epitope, PBMC from four patients with metastatic prostate cancer and from four healthy donors were analyzed for the presence of CD8^+ T cells reactive with the NGEP-P703 tetramer. T cells (5×10^5) were stained with 10 μl of PE-labeled NGEP-P703/HLA-A*0201 tetramer and anti-CD8 antibody.
These same four prostate cancer patients then were analyzed for tetramer binding after receiving six monthly cycles of a PSA-based vaccine (PSA/TRICOM).

“IVFEHVVFSV [Peptide P855, NGEP long form amino acids 855-864]”: in the assay with HLA-A2 molecules [1], the “T2 Binding” value is on record as 203 mean fluorescence intensity.

For the sequence “VLLEVVPDV [Peptide P215, NGEP long form amino acids 215-223]”, in the assay with HLA-A2 molecules [1], the “T2 Binding” value is given as 464 mean fluorescence intensity.

For “ILFEILAKT [Peptide P258, NGEP long form amino acids 258-266]”, in the assay with HLA-A2 molecules [1], the “T2 Binding” value is reported as 280 mean fluorescence intensity.

Consider “LVWEEDLKL [Peptide P113, NGEP short form amino acids 113-121]”, for which the “T2 Binding” value with HLA-A2 molecules [1] is on record as 367 mean fluorescence intensity.

As for “FLDNIRAAGL [Peptide P143, NGEP short form amino acids 143-152]”, the “T2 Binding” value with HLA-A2 molecules [1] is reported as 203 mean fluorescence intensity.

“LLAIRLWAV [Peptide P846, NGEP long form amino acids 846-854]”: the “T2 Binding” value with HLA-A2 molecules [1] was 126 mean fluorescence intensity.

With “WLLPAAVVGT [Peptide P356, NGEP long form amino acids 356-365]”, the “T2 Binding” value in the assay with HLA-A2 molecules [1] was 354 mean fluorescence intensity.

With “ALLSASWAV [Peptide P170, NGEP long form amino acids 170-178]”, the “T2 Binding” value with HLA-A2 molecules [1] is 185 mean fluorescence intensity.

Regarding “GLFDEYLEMV [Peptide P703, NGEP long form amino acids 703-712]”, in the assay with HLA-A2 molecules [1] (compared with P215 peptide and positive control), the “Binding to T2 cells at various peptide concentrations (FIG. 1B)” value is on record as “higher levels”. Further, the “T2 Binding” value with HLA-A2 molecules [1] is listed as 565 mean fluorescence intensity. Also, the “Stability of peptide-HLA-A2 complexes (FIG. 1A)” value with HLA-A2 molecules [2] is on record as “most stable complexes”. The “Frequency of NGEP-P703 specific CD8+ T cells, prostate cancer patients versus healthy donors” value with CD8+ T cells in PBMC is given as “higher frequency”.

“GLGGPPLPTL [Peptide P10, NGEP short form amino acids 10-19]”: the “T2 Binding” value with HLA-A2 molecules [1] is listed as 212 mean fluorescence intensity.

Take SLSYTNPAV [MUC-1, reference compound]: the “T2 Binding” value with HLA-A2 molecules [1] is listed as 452 mean fluorescence intensity.

On to HLFGYSWYK [CAP-7, reference compound], for which, on HLA-A2 molecules [1], the “T2 Binding” value was 88.0 mean fluorescence intensity.

The record behind these values is patent publication US8748390B2, “Immunogenic epitopes of NGEP antigen” (The United States of America, as represented by the …, priority 2009, dated 2014).
